Earlier results on one substance are cited in article PMC5427221.

In this data set the target is C3b C3b (Homo sapiens) (UniProt P01024).
UniProt P01024, sequence (P01024 566-670): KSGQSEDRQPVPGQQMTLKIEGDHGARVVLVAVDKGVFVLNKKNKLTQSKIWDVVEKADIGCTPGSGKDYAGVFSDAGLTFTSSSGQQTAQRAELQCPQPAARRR

As usually defined, the Kd is the equilibrium constant for the complex coming apart. For the substance Factor H FH[1-4] (from UniProt P08603), the Kd was 10 µM.
